Measured values published in patent US20200055930A1 (Pfizer, published 2020).
Changes are numbered by the printed parent chain. Values joined by “and” are separate entries in the source; they are usually repeats but may differ in a detail not shown here. Equal entries are not always repeated. One block for each binder: values may come before it.

Tests used:
[1] = target: T1, Mouse Fc-human GDF15 (Mu IgG1Fc_Fxa_Hu GDF15) (human (GDF15 part)); test: SPR BIAcore T200 37C; Fc-GDF15 captured, IgG analyte
T1 construct: Whole fusion entry; also called Murine dimeric IgG1 Fc-human GDF-15 with FXa cleavage site; control human GDF15
T1 chain: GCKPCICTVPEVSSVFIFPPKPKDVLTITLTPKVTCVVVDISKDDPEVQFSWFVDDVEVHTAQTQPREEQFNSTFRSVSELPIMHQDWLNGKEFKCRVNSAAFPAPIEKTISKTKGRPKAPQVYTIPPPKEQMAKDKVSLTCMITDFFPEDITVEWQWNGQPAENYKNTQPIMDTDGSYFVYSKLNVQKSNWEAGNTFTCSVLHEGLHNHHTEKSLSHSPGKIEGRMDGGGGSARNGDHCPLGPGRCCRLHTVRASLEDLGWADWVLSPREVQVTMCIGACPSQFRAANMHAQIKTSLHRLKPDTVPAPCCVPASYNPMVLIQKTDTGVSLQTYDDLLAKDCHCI
Protocol: Mouse Fc-human GDF15 (Mu IgG1Fc_Fxa_Hu GDF15; SEQ ID NO:2), Mouse Fc-mouse GDF15 (Mu IgG1Fc_Fxa_Mu GDF15; SEQ ID NO:5) and Mouse Fc-cynomolgus monkey GDF15 (Mu IgG1Fc_Fxa_Cyno GDF15; SEQ ID NO:4) were captured onto three different flow cells of a CM4 sensorchip (catalogue number BR100534, GE Healthcare) surface using the Mouse Antibody Capture Kit (BR100838, GE Healthcare) according to the manufacturer's protocol. The running and sample buffer was 10 mM HEPES pH 7.4, 0.15M NaCl, 3 mM EDTA, 0.05% P-20 (HBS-EP+). The final capture levels of Mu IgG1Fc_Fxa_Hu GDF15, Mu IgG1Fc_Fxa_Mu GDF15 and Mu IgG1Fc_Fxa_Cyno GDF15 were 40 resonance units (RU), 32 RU and 25 RU respectively. Flow cell 1 was used as a reference flow cell. […] The dissociation was monitored for 2.8 hours and the surface was regenerated with 10 mM Glycine pH 1.7. Binding affinities and rate constants were determined for murine and cynomolgus monkey GDF15 by fitting the resulting sensorgram data to a 1:1 Langmuir model in BIAcore T200 Evaluation software version 2.0 (GE Healthcare). […]

[2] = target: Mouse Fc-mouse GDF15 (Mu IgG1Fc_Fxa_Mu GDF15) (mouse (GDF15 part)); test: SPR BIAcore T200 37C; Fc-GDF15 captured, monomeric Fc-Fab analyte; average
[3] = target: T2, Mouse Fc-cynomolgus monkey GDF15 (Mu IgG1Fc_Fxa_Cyno GDF15) (cynomolgus monkey (GDF15 part)); test: SPR BIAcore T200 37C; Fc-GDF15 captured, monomeric Fc-Fab analyte
T2 construct: Whole fusion entry; also called Murine dimeric IgG1 Fc-cyno GDF-15 with FXa cleavage site
T2 chain: T1 chain with H239R, R254H, A287E, T296M, S297N, I345V
Description: (§1) To understand the KD value, without the avidity effect, of GDF15_001 binding to GDF15, monomeric Fc-Fab was produced and tested in the same assay used in Example 2. […] Mu IgG1Fc_Fxa_Hu GDF15, Mu IgG1Fc_Fxa_Mu GDF15 and Mu IgG1Fc_Fxa_Cyno GDF15 were captured onto three different flow cells of a CM4 sensorchip (catalogue number BR100534, GE Healthcare) surface using the Mouse Antibody Capture Kit (BR100838, GE Healthcare) according to the manufacturer's protocol. The running and sample buffer was 10 mM HEPES pH 7.4, 0.15M NaCl, 3 mM EDTA, 0.05% P-20 (HBS-EP+). The final capture levels of Mu IgG1Fc_Fxa_Hu GDF15, Mu IgG1Fc_Fxa_Mu GDF15 and Mu IgG1Fc_Fxa_Cyno GDF15 were 19 resonance units (RU), 22 RU and 19 RU respectively. Flow cell 1 was used as a reference flow cell. […] The dissociation was monitored for 1200 seconds and the surface was regenerated with 10 mM Glycine pH 1.7. Binding affinities and rate constants were determined by fitting the resulting sensorgram data to a 1:1 Langmuir model in BIAcore T200 Evaluation software version 2.0 (GE Healthcare).

[4] = target: T1, Mouse Fc-human GDF15 (Mu IgG1Fc_Fxa_Hu …); test: as above
Description: as §1

[5] = target: Mouse Fc-mouse GDF15 (Mu IgG1Fc_Fxa_Mu GDF15) (mouse (GDF15 part)); test: SPR BIAcore T200 37C; Fc-GDF15 captured, monomeric Fc-Fab analyte; murine GDF15 ligand (Mu IgG1Fc_Fxa_Mu GDF15), second run
[6] = target: Mouse Fc-mouse GDF15 (Mu IgG1Fc_Fxa_Mu GDF15) (mouse (GDF15 part)); test: SPR BIAcore T200 37C; Fc-GDF15 captured, monomeric Fc-Fab analyte
[7] = target: Mouse Fc-mouse GDF15 (Mu IgG1Fc_Fxa_Mu GDF15) (mouse (GDF15 part)); test: SPR BIAcore T200 37C; Fc-GDF15 captured, monomeric Fc-Fab analyte; murine GDF15 ligand (Mu IgG1Fc_Fxa_Mu GDF15), first run
[8] = target: T1, Mouse Fc-human GDF15 (Mu IgG1Fc_Fxa_Hu …); test: SPR BIAcore T200 37C; Fc-GDF15 captured, IgG analyte; same run as printed in Table 6 (the 8th table r8)
Protocol: (§2) Mouse Fc-human GDF15 (Mu IgG1Fc_Fxa_Hu GDF15; SEQ ID NO:2), Mouse Fc-mouse GDF15 (Mu IgG1Fc_Fxa_Mu GDF15; SEQ ID NO:5) and Mouse Fc-cynomolgus monkey GDF15 (Mu IgG1Fc_Fxa_Cyno GDF15; SEQ ID NO:4) were captured onto three different flow cells of a CM4 sensorchip (catalogue number BR100534, GE Healthcare) surface using the Mouse Antibody Capture Kit (BR100838, GE Healthcare) according to the manufacturer's protocol. The running and sample buffer was 10 mM HEPES pH 7.4, 0.15M NaCl, 3 mM EDTA, 0.05% P-20 (HBS-EP+). The final capture levels of Mu IgG1Fc_Fxa_Hu GDF15, Mu IgG1Fc_Fxa_Mu GDF15 and Mu IgG1Fc_Fxa_Cyno GDF15 were 40 resonance units (RU), 32 RU and 25 RU respectively. Flow cell 1 was used as a reference flow cell. […] The dissociation was monitored for 2.8 hours and the surface was regenerated with 10 mM Glycine pH 1.7. Binding affinities and rate constants were determined for murine and cynomolgus monkey GDF15 by fitting the resulting sensorgram data to a 1:1 Langmuir model in BIAcore T200 Evaluation software version 2.0 (GE Healthcare).
(§3) Additionally, the binding of clone GDF15_001 to cynomolgus monkey and mouse GDF15 was measured using above mentioned BIAcore assay (Table 7).

[9] = target: T2, Mouse Fc-cynomolgus monkey GDF15 (Mu …); test: SPR BIAcore T200 37C; Fc-GDF15 captured, IgG analyte
Protocol: as §2, §3

[10] = target: T1, Mouse Fc-human GDF15 (Mu IgG1Fc_Fxa_Hu …); test: SPR BIAcore T200 37C; Fc-GDF15 captured, IgG analyte; same run as printed in Table 6 (the 8th table r9)
Protocol: as §2, §3

[11] = target: T1, Mouse Fc-human GDF15 (Mu IgG1Fc_Fxa_Hu …); test: SPR BIAcore T200 37C; Fc-GDF15 captured, IgG analyte; same run as printed in Table 6 (the 8th table r7)
Protocol: as §2, §3

B3: GDF15_014 (antibody, human IgG1, kappa, V domains shown)
VH: QVQLVQSGAEVKKPGSSVKVSCKASGYTFSSYNIDWVRQAPGQGLEWMGQINPINGLAFYNQKFQGRVTITADESTSTAYMELSSLRSEDTAVYYCAREAITTVGAMDYWGQGTLVTVSS
VL: EIVLTQSPATLSLSPGERATLSCRTSQNVHNYLAWYQQKPGQAPRLLIYDASNRATGIPARFSGSGSGTDFTLTISSLEPEDFAVYYCQQFWSDPYTFGQGTKVEIKR
notes: Tested in bivalent format
T½ [1]: 10.7 h and 13 h

B5: GDF15_001 (antibody, human IgG1, kappa, V domains shown)
VH: B3 VH with Q50G, N55F, L57T, Y109H
VL: B3 VL with N28S, N53T, T56D, D94W, Y96W
notes: Bivalent IgG1/kappa; also called clone GDF15_001; anti-GDF15_001
T½ [8]: 30.8 h
T½ [1]: 40.3 h and 20.9 h and 30.8 h
T½ [9]: 14.8 h and 15.5 h and 18.7 h
T½ [10]: 40.3 h
T½ [11]: 20.9 h

B8: GDF15_015 (antibody, human IgG1, kappa, V domains shown)
VH: B3 VH with S31D, I34M, I54N, M107T
VL: B3 VL with N31S, R54L, T56D, W92S, S93N, Y96W
notes: Tested in bivalent format
T½ [1]: 1.94 h and 1.86 h

B9: GDF15_013 (antibody, human IgG1, kappa, V domains shown)
VH: B3 VH with S31D, I34M, Q50G, I54N
VL: B3 VL with Q27E, N28S, N31S, S93N, D94W, Y96W
notes: Tested in bivalent format
T½ [1]: 2.89 h and 2.56 h

B10: GDF15_003 (antibody, human IgG1, kappa, V domains shown)
VH: B3 VH with S30T, I54N, A100Q
VL: B3 VL with T25A, N28S, V29L, H30S, N31S, S52K, T56D, W92S
notes: Tested in bivalent format
T½ [1]: 2.67 h and 2.1 h

B11: GDF15_010 (antibody, human IgG1, kappa, V domains shown)
VH: B3 VH with S31D, Q50G, I54N, Y60F
VL: B3 VL with N28S, V29L, N31S, S93N, Y96W
notes: Tested in bivalent format
T½ [1]: 13.1 h and 10.8 h

B13: GDF15_004 (antibody, human IgG1, kappa, V domains shown)
VH: B3 VH with I54N, F59N, N61A, V104I
VL: B3 VL with Q27E, N28S, N31S, N53T, T56D
notes: Tested in bivalent format
T½ [1]: 2.7 h and 2.35 h

The remaining lines, values ahead:

T½ [1]: 17.7 h and 14.9 h
B1: GDF15_0297 (antibody, mouse IgG1, kappa, V domains shown)
VH: QVQLQQPGAELVKPGASVKMSCKASGYPFEGWYIHWVKQRPGQGLEWMGWNNPRTGLTNHAQKFQGKVTMTRDTSSSTAYMQLSSLTSEDSAVYYCARGVGADAAFDIWGQGTTLTVSS
VL: DIVMTQSPSSLSVSAGEKVTMSCRSSQSLLWKHGYNYLDWYQQKPGQPPKLLIYLDRNRAHGVPDRFTGSGSGTDFTLTISSVQAEDLAVYYCMQSFETPITFGGGTKLEIKR
notes: also called GDF15_297; GDF_0297

Kd [2]: 1.97 nM
koff [2]: 0.00326 s⁻¹
kon [2]: 1.66e+06 M⁻¹ s⁻¹
T½ [3]: 2.57 h and 2.05 h
T½ [4]: 8.54 h and 4.2 h
Kd [5]: 1.82 nM
T½ [6]: 3.39 min and 3.73 min
koff [6]: 0.00341 s⁻¹ and 0.0031 s⁻¹
kon [6]: 1.62e+06 M⁻¹ s⁻¹ and 1.7e+06 M⁻¹ s⁻¹
Kd [7]: 2.11 nM
B2: monomeric GDF15_001 (Fab, V domains shown)
VH: B3 VH with Q50G, N55F, L57T, Y109H
VL: EIVLTQSPATLSLSPGERATLSCRTSQSVHNYLAWYQQKPGQAPRLLIYDASTRADGIPARFSGSGSGTDFTLTISSLEPEDFAVYYCQQFWSWPWTFGQGTKVEIK
notes: only the variable domains of GDF15_001 are tied to it; also called CH23LS-GDF15_001; CH23LS-GBT-GDF15_001

T½ [1]: 10.9 h and 13.3 h
B4: GDF15_022 (antibody, human IgG1, kappa, V domains shown)
VH: B3 VH with S31D, I54N, A58I, Y60F, A100V
VL: B3 VL with N28S, N31S, S52K, N53T, T56D, W92S
notes: Tested in bivalent format

T½ [1]: 2.35 h and 2.22 h
B6: GDF15_017 (antibody, human IgG1, kappa, V domains shown)
VH: B3 VH with S30T, S31D, I54N, T91N
VL: B3 VL with N28S, N31S, S52K, N53T, W92S
notes: Tested in bivalent format

T½ [1]: 0.661 h and 0.547 h
B7: GDF15_021 (antibody, human IgG1, kappa, V domains shown)
VH: B3 VH with Q50G, A58I, Y60F, Y109H
VL: B3 VL with Q27E, N31S, R54L, T56D
notes: Tested in bivalent format

T½ [1]: 2.03 h and 1.7 h
B12: GDF15_020 (antibody, human IgG1, kappa, V domains shown)
VH: B3 VH with S31D, I34M, I54N, F59N
VL: B3 VL with T25A, V29L, N31S, N53T, T56D
notes: Tested in bivalent format

T½ [1]: 3.7 h and 4.47 h
B14: GDF15_0470 (antibody, human IgG1, kappa, V domains shown)
VH: QVQLVQSGAEVKKPGASVKVSCKASGYPFEGWYIHWVRQAPGQGLEWMGWNNPRTGLTNHAQKFQGRVTMTRDTSISTAYMELSRLRSDDTAVYYCARGVGADAAFDIWGQGTMVTVSS
VL: EIVLTQSPATLSLSPGERATLSCRSSQSLLWKHGYNYLDWYQQKPGQAPRLLIYLDRNRAHGIPARFSGSGSGTDFTLTISSLEPEDFAVYYCMQSFETPITFGQGTKVEIKR
notes: Tested in bivalent format; also called GDF15-470
